The values below come from patent US20130302353A1 (published 2013).

The target in assay [1] is T1, VSREGQGRQ (SEQ ID NO:38) motif (human).
T1 construct: the peptides on the cards were longer and mostly CLIPS-constrained; also called core region EGQ
T1 peptide: VSREGQGRQ
The assay can be described thus: Pepscan ELISA on linear and CLIPS peptides. The procedure:
(§1) The synthetic linear and CLIPS peptides were synthesized and screened using credit-card format mini PEPSCAN cards (455-well plate with 3 ul wells) as described by Slootstra et al. (Slootstra et al., 1996, Mol. Diversity. 1, 87-96) and Timmerman et al. (Timmerman et al., 2007, J. Mol. Recognit. 20, 283-299). The binding of antibodies (hAPRIL.01A and hAPRIL.03A) to each peptide was tested in a PEPSCAN-based enzyme-linked immuno assay (ELISA). The 455-well creditcard-format polypropylene cards, containing the covalently linked peptides, were incubated with sample (for example 1 ug/ml antibody diluted in a PBS solution containing 5% horse serum (vol/vol) and 5% ovalbumin (weight/vol)) and 1% Tween 80 (4° C., overnight). After washing the peptides were incubated with an anti-antibody peroxidase (dilution 1/1000, for example rabbit anti-mouse peroxidase, Southern Biotech) (1 hour, 25° C.), and subsequently, after washing the peroxidase substrate 2,2′-azino-di-3-ethylbenzthiazoline sulfonate (ABTS) and […] 3% H2O2 were added. After 1 hour the color development was measured. The color development of the ELISA was quantified with a CCD-camera and an image processing system. […]
(§2) Each antibody was tested on all 4225 peptides and their binding values were ranked. […] For hAPRIL.01A it was determined that it binds to […] […]
In general terms: An ELISA detects its analyte on a solid surface through an enzyme-linked reagent.

For assay [2], the target named is T2, IRSMPSHPDRA (SEQ ID NO:33) (human).
T2 construct: the peptides on the cards were longer and mostly CLIPS-constrained
T2 peptide: IRSMPSHPDRA
The assay can be described thus: Pepscan ELISA on linear and CLIPS peptides. The procedure: as §1, §2

The target of assay [3] is T3, FLAG-hAPRIL captured by BCMA-Fc (human, UniProt O75888 110-250; Q02223 1-54, limits assumed).
T3 construct: also called APRIL-BCMA complex; receptor-ligand complex; not shown: FLAG tag; Fc of human IgG1
T3 sequence (looked up) 1: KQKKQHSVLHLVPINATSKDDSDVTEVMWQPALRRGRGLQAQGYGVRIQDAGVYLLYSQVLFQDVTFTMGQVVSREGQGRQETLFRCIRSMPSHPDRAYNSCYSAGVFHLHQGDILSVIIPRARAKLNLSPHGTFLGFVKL
T3 sequence (looked up) 2: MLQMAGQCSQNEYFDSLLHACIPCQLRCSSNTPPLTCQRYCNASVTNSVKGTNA
Put plainly: ELISA, FLAG-hAPRIL captured by coated BCMA-Fc. The procedure:
Protein-based ELISA experiments using purified hAPRIL.01A and hAPRIL.03A antibodies were performed to determine apparent binding affinities (reported as EC₅₀ values). Binding was compared to mouse anti-hAPRIL IgG1 Aprily-5 (Alexis). Maxisorp 96-well immunoplates (Nunc) were coated with either rabbit anti-FLAG polyclonal antibody (Sigma) or BCMA-Fc (R&D Systems) at 50 ng/well in PBS overnight at 4° C. and blocked with 10% Goat serum/PBST for 1 hour at RT. Plates were washed with PBST 3 times and incubated with supernatant (1:4 in PBS) containing FLAG-hAPRIL for 1 hour at RT. Plates were again washed with PBST 3 times and incubated with hAPRIL.01A, hAPRIL.03A, and Aprily-5 antibodies (10 μg/ml high test with 10-fold dilutions in triplicates) for 1 h at RT. After three washes with PBST, bound antibodies were detected with goat anti-mouse IgG-HRP (1:2,000) (Southern Biotechnology) for 1 hour at RT. Plate was washed three times with PBST, and APRIL-reactivity was visualized with OptiEIA TMB substrate (Becton Dickinson). The concentration for half-maximal binding is reported as a measure of relative binding affinity. When FLAG-hAPRIL was captured by the anti-FLAG antibody (FIG. 2A), EC₅₀ values for hAPRIL.01A, hAPRIL.03A and Aprily-5 were calculated as 2.2, 1.4, and 1.7 nM, respectively. […] In contrast, binding of hAPRIL.03A to the APRIL-BCMA complex was observed.

B1: hAPRIL.03A (antibody, IgG1, V domains shown)
VH: QVTLKESGPGILQPSQTLSLTCSFSGFSLSTYGIGVGWIRQPSGKGLEWLAHIWWNDNKYYNTALKSRLTISKDTSNNQVFLKIASVDTADTATYYCARIAGGNYDYAMDHWGQGTSVTVSS
VL: QIVLTQSPAIMSTSPGEKVTLTCSASSSVSSTYLYWYQQKPGSSPKLWIYSTSNLASGVPARFSGSGSGTSYSLTISSMEAEDAASYFCHQWSSYPPTFGAGTKLELK
notes: Mouse antibody from a hybridoma; also called hAPRIL.03A hybridoma supernatant; purified hAPRIL.03A
Turning to B1, the binding result in assay [1] is “binds”.

B2: hAPRIL.01A (antibody, IgG1, V domains shown)
VH: EVQLQQSGPELVKPGASVKMSCKASGYTFTSYVMHWVKQKPGQGLEWIGYINPYNDAPKYNEKFKGKATVTSDKSSGTAYMELSSLTSEDSAVYYCARGLGYALYYAMDYWGQGTSVTVSS
VL: DIVMTQSQKFKSTSVGDRVSVTCKASQNVGNNVAWYQQKAGQSPKALISSASNRDSGVPDRFTGSGSGTDFTLTISNVQSEDLADYFCQQYNIYPFTFGSGTELEIK
notes: Mouse antibody from a hybridoma; also called hAPRIL.01A hybridoma supernatant; purified hAPRIL.01A
On to B2, for which the figures for the binding result in assay [2] and in assay [3] were “binds” and “no binding (tested: 10 µg/ml high test)”, respectively.
